Tests used:
MS2 coat protein = assay: apparent KD of MS2 coat protein; higher = weaker reporter binding; settings: Eterna round: R107
Description: (§1)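 RNA-MaP round R107: designed RNA switches with theophylline, tryptophan, arginine or FMN aptamers are transcribed on-chip within common flanks. They are titrated with SNAP-549-labelled MS2 coat protein in RNA-MaP buffer (100 mM Tris pH 7.5, 80 mM KCl, 4 mM MgCl2), without ligand or with the indicated ligand. Median apparent KD per design.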

[1] = system: K4 kissing-loop RNA reporter; assay: apparent KD of K4 kissing-loop reporter; higher = weaker reporter binding; settings: Eterna round: R107;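 also: bound reporter read as fluorescence of individual clusters on recovered sequencing chips by microscopy, with normalized cluster intensities fitted with a binding model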
Description: as §1, with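 “a labelled K4 kissing-loop RNA reporter” for “SNAP-549-labelled MS2 coat protein”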

[2] = input ligand: theophylline 20 uM
[3] = input ligand: theophylline 2 mM
[4] = input ligand: tryptophan 2.4 mM

AUCUUUGAUGAUCUGGGAAAACCAGAUCGGCGAGGACCGGUACGGCCGCCACUCGUGUAUAAUAUACAUGAGGAUCACCCAUGUA [#20 Tryptophan A Same State]
apparent KD of MS2 coat protein (MS2 coat protein; input ligand: arginine 13.2 mM): 50 nM | apparent KD of MS2 coat protein (MS2 coat protein; input ligand: none): 55.4 nM | apparent KD of MS2 coat protein (MS2 coat protein; [2]): 99 nM | apparent KD of MS2 coat protein (MS2 coat protein; [3]): 91.6 nM | apparent KD of MS2 coat protein (MS2 coat protein; [4]): 25.1 nM

AGAUUCGACACGGCCGCCACUCGUGACGGAUUUCCGAGUGUCGAACAUGAGGAUCACCCAUGUACGAGGACCGGGUGUUGAGUCU [XTryp B #13]
apparent KD of MS2 coat protein (MS2 coat protein; input ligand: arginine 13.2 mM): 39.6 nM | apparent KD of MS2 coat protein (MS2 coat protein; [2]): 86.7 nM | apparent KD of MS2 coat protein (MS2 coat protein; [3]): 90.4 nM

GCCUAGCAUCGAAGGAGCGGGCAUUACGCGCGAAAGCGCGAUGCACGAGGAUCACCCGUGUCCCAGGUAGGUCGCGAUGCUAGGC [SSAB Alternative Aptamer #4 V+V2]
apparent KD of MS2 coat protein (MS2 coat protein; input ligand: arginine 13.2 mM): 153 nM | apparent KD of MS2 coat protein (MS2 coat protein; input ligand: none): 508 nM | apparent KD of MS2 coat protein (MS2 coat protein; [2]): 368 nM | apparent KD of MS2 coat protein (MS2 coat protein; [3]): 527 nM | apparent KD of MS2 coat protein (MS2 coat protein; [4]): 343 nM

CGAUAGAUACGAAGGAGCGACAUGAGGAUCACCCAUGUCUACCACGUCGAAAGACGCUCAUGUCAGGUAGGUCGCGUAUUUAUCG [Astros-Eli-mod8]
apparent KD of MS2 coat protein (MS2 coat protein; input ligand: arginine 13.2 mM): 60.3 nM | apparent KD of MS2 coat protein (MS2 coat protein; input ligand: none): 122 nM | apparent KD of MS2 coat protein (MS2 coat protein; [2]): 124 nM | apparent KD of MS2 coat protein (MS2 coat protein; [3]): 156 nM | apparent KD of MS2 coat protein (MS2 coat protein; [4]): 101 nM

GCGAUGGAGCGAAGGAGCGUGCUGGUACAUGAGGAUCACCCAUGUGAACCGCAGCGCUAAGCACAGGUAGGUCGCGCUCCAUCGC [EAB NP+V+V2 #14]
apparent KD of MS2 coat protein (MS2 coat protein; input ligand: arginine 13.2 mM): 102 nM | apparent KD of MS2 coat protein (MS2 coat protein; input ligand: none): 28.8 nM | apparent KD of MS2 coat protein (MS2 coat protein; [2]): 28.4 nM | apparent KD of MS2 coat protein (MS2 coat protein; [3]): 23 nM | apparent KD of MS2 coat protein (MS2 coat protein; [4]): 41.9 nM

ACGAUAGGACUUGAGGAUCACCCAAGUGAUACCAGCCUGGAAACAGGCCCUUGGCAGCACUAAUACUCCAAUAACCUAUCGAAUA [TheoAX 14 #MicroSwitchBubble #AlternativeMS2]
apparent KD of MS2 coat protein (MS2 coat protein; input ligand: arginine 13.2 mM): 78.6 nM | apparent KD of MS2 coat protein (MS2 coat protein; input ligand: none): 232 nM | apparent KD of MS2 coat protein (MS2 coat protein; [2]): 228 nM | apparent KD of MS2 coat protein (MS2 coat protein; [3]): 387 nM | apparent KD of MS2 coat protein (MS2 coat protein; [4]): 395 nM

AGCAGCUCGAAAGAGUUGCACUCAUGUGAAGGAGCGCCCGUUAGGGCAGGUAGGUCGCACAUGAGGAUCACCCAUGUACCUUCUA [ArgAX 20 #OpenEnded #MS2Late]
apparent KD of MS2 coat protein (MS2 coat protein; input ligand: arginine 13.2 mM): 84.4 nM | apparent KD of MS2 coat protein (MS2 coat protein; input ligand: none): 174 nM | apparent KD of MS2 coat protein (MS2 coat protein; [2]): 182 nM | apparent KD of MS2 coat protein (MS2 coat protein; [3]): 273 nM | apparent KD of MS2 coat protein (MS2 coat protein; [4]): 188 nM

UAACAUGAGGAUCACCCAUGUAAACUAAGUCGAGGACCGGUACGGCCGCCACUCGAAAUUGAAGAAUUGGCGGAAAAUGUAUGUU [JR_ExcTryptoA_Sub018]
apparent KD of MS2 coat protein (MS2 coat protein; input ligand: arginine 13.2 mM): 12 nM | apparent KD of MS2 coat protein (MS2 coat protein; [2]): 17.7 nM | apparent KD of MS2 coat protein (MS2 coat protein; [3]): 13.3 nM

CAACUGGCAGAGGAUACCAGAUCAUUUAGAAACAUGAGGAUCACCCAUGUCGUAAGGAUAAUCCCUUGGCAGCCUAUCCGCCUCG [theeternabot_sameState_MS2_Theo_B_48]
apparent KD of MS2 coat protein (MS2 coat protein; input ligand: arginine 13.2 mM): 14.2 nM | apparent KD of MS2 coat protein (MS2 coat protein; [2]): 16.6 nM | apparent KD of MS2 coat protein (MS2 coat protein; [4]): 14.5 nM

AAGGUAUCACCAACUUGUAACAUAGGUGAUACCAGCAUCGAAAGAUGCCCUUGGCAGCACCAACUUGCAGUGAUGUUGCAAGUAA [(T)'-(H)'-(T1)-(T2)-(H1)-(H2)_Design11]
apparent KD of K4 kissing-loop reporter ([1]; input ligand: FMN 200 uM): 166 nM | apparent KD of K4 kissing-loop reporter ([1]; input ligand: arginine 13.2 mM): 140 nM | apparent KD of K4 kissing-loop reporter ([1]; input ligand: none): 152 nM | apparent KD of K4 kissing-loop reporter [1, 2]: 152 nM | apparent KD of K4 kissing-loop reporter [1, 4]: 144 nM

GAGCCAGAGGUUGCUGCGGGUUCCAGAGAUACCAGCCGUAUUGAAGGCCCUUGGCAGCUCGAGUGAUGUUCGAGCCGCCUCUGAC [Isquleorve]
apparent KD of K4 kissing-loop reporter ([1]; input ligand: FMN 200 uM): 119 nM | apparent KD of K4 kissing-loop reporter ([1]; input ligand: arginine 13.2 mM): 104 nM | apparent KD of K4 kissing-loop reporter ([1]; input ligand: none): 97.2 nM | apparent KD of K4 kissing-loop reporter [1, 2]: 108 nM | apparent KD of K4 kissing-loop reporter [1, 4]: 110 nM

UGACUACAAAAGGAAUAAUCCUAGUGAUGUUAGGAUAUGCUGAUAAGCAGAAGGAACUGAGAUCGAAAGAUCUCAAAUGUAGUCU [FmnAX 25 Mat Inspired #SwitchBubble #StaticStem #K4Early]
apparent KD of K4 kissing-loop reporter ([1]; input ligand: FMN 200 uM): 116 nM | apparent KD of K4 kissing-loop reporter ([1]; input ligand: arginine 13.2 mM): 89.1 nM | apparent KD of K4 kissing-loop reporter ([1]; input ligand: none): 92.3 nM | apparent KD of K4 kissing-loop reporter [1, 2]: 103 nM | apparent KD of K4 kissing-loop reporter [1, 4]: 93 nM

CUUGGAAGGACGGCCGCCACUCGACAGUGAUGUUGUCCGAGUUGGUAACGCAGUGAUGUUGUGUCGAGGACCGGGUCCUAGGAAU [Exclusion Tryptophan B GF 26]
apparent KD of K4 kissing-loop reporter ([1]; input ligand: FMN 200 uM): 199 nM | apparent KD of K4 kissing-loop reporter ([1]; input ligand: arginine 13.2 mM): 149 nM | apparent KD of K4 kissing-loop reporter ([1]; input ligand: none): 185 nM | apparent KD of K4 kissing-loop reporter [1, 2]: 174 nM | apparent KD of K4 kissing-loop reporter [1, 4]: 147 nM

UCGGGCGGCUGAAGGAGCGGGCGGGCCCGAGUGAUGUUCGGGUGGGCUGUGAGGCCCGGAGCCCAGGUAGGUCGCGGUUCCGCCC [#2 Same State - Arginine B Attempt #28 (HarryS)]
apparent KD of K4 kissing-loop reporter ([1]; input ligand: FMN 200 uM): 262 nM | apparent KD of K4 kissing-loop reporter ([1]; input ligand: arginine 13.2 mM): 181 nM | apparent KD of K4 kissing-loop reporter ([1]; input ligand: none): 157 nM | apparent KD of K4 kissing-loop reporter [1, 2]: 168 nM | apparent KD of K4 kissing-loop reporter [1, 4]: 158 nM

CUCGUGGGUUUGAGAGGGCUUGUGGGAAGUGAGGAUAUUUAGGGAGAAAGAAGGCACUAUAGAAUAUAGUGAUGUUAUAUAUGGG [SSFMNA.Q]
apparent KD of K4 kissing-loop reporter ([1]; input ligand: FMN 200 uM): 313 nM | apparent KD of K4 kissing-loop reporter ([1]; input ligand: arginine 13.2 mM): 109 nM | apparent KD of K4 kissing-loop reporter ([1]; input ligand: none): 264 nM | apparent KD of K4 kissing-loop reporter [1, 2]: 69.3 nM | apparent KD of K4 kissing-loop reporter [1, 4]: 256 nM

GAAAGAAAGUAUGAUACCAGACACCCGAGUGAUGUUCGGAGCAGUGUGUUGUUCUUUUAAGUCCCUUGGCAGCAUAAAAGAAAAG [whbob_SS_Theo_B_sa85]
apparent KD of K4 kissing-loop reporter ([1]; input ligand: FMN 200 uM): 116 nM | apparent KD of K4 kissing-loop reporter ([1]; input ligand: arginine 13.2 mM): 107 nM | apparent KD of K4 kissing-loop reporter ([1]; input ligand: none): 127 nM | apparent KD of K4 kissing-loop reporter [1, 2]: 114 nM | apparent KD of K4 kissing-loop reporter [1, 4]: 87.1 nM

AGAACUGUCUUGGAUACCAGUGAUGUUGGUAUCUAUGUGUGAGUGCAAAGCGUCCCACAUUGCCCUUGGCAGCUAAGACUGUUCA [Omei KL Theo B Exc A v2]
apparent KD of K4 kissing-loop reporter ([1]; input ligand: FMN 200 uM): 154 nM | apparent KD of K4 kissing-loop reporter ([1]; input ligand: arginine 13.2 mM): 132 nM | apparent KD of K4 kissing-loop reporter ([1]; input ligand: none): 146 nM | apparent KD of K4 kissing-loop reporter [1, 2]: 216 nM | apparent KD of K4 kissing-loop reporter [1, 4]: 145 nM

GUCUCGAGUGAUGUUCGGGUCGUUUGGGAAGGAGCGCCCGGAAGGGCAGGUAGGUCGCCCGGACCGCGCGGGCAACCGCGCGGCC [#2 Same State - Arginine A Attempt #12 (HarryS)]
apparent KD of K4 kissing-loop reporter ([1]; input ligand: FMN 200 uM): 228 nM | apparent KD of K4 kissing-loop reporter ([1]; input ligand: arginine 13.2 mM): 162 nM | apparent KD of K4 kissing-loop reporter ([1]; input ligand: none): 217 nM | apparent KD of K4 kissing-loop reporter [1, 2]: 212 nM | apparent KD of K4 kissing-loop reporter [1, 4]: 192 nM

GAUAGUUAGAGAGAUACCAGCGAUACCUAGAUGGAAAGUGAUGUUCGCCAUCAAUUGCACCGCCCUUGGCAGCUCUCUCUUUGCU [theeternabot_exclusion_KL_Theo_B_37]
apparent KD of K4 kissing-loop reporter ([1]; input ligand: FMN 200 uM): 995 nM | apparent KD of K4 kissing-loop reporter ([1]; input ligand: arginine 13.2 mM): 763 nM | apparent KD of K4 kissing-loop reporter ([1]; input ligand: none): 1170 nM | apparent KD of K4 kissing-loop reporter [1, 2]: 974 nM | apparent KD of K4 kissing-loop reporter [1, 4]: 959 nM

AUUAAUUUCAGAGGAUAUCGUUAUUUUUUUAAGUAUAAUCUAUUUUGCAGUGAUGUUGCUAUUAAUCGAGAAGGCUGAUUUAUAA [JR_SSFMNB_Sub020]
apparent KD of K4 kissing-loop reporter ([1]; input ligand: FMN 200 uM): 109 nM | apparent KD of K4 kissing-loop reporter ([1]; input ligand: arginine 13.2 mM): 140 nM | apparent KD of K4 kissing-loop reporter ([1]; input ligand: none): 75.3 nM | apparent KD of K4 kissing-loop reporter [1, 2]: 136 nM | apparent KD of K4 kissing-loop reporter [1, 4]: 72.2 nM
